Source: doi:10.1101/2024.11.07.622398

Legend:
[1] = target: His-GST-tagged bovine UBA7(eCCL) (bovine); test: BLI
[2] = target: His-GST-tagged UBA7(U1) chimera (bovine | human) (UniProt P22314); test: BLI
bovine UBA7 (bovine) [3] = target: bovine UBA7 (bovine)
[4] = target: His-GST-tagged bovine UBA7(C597A) (bovine); test: BLI
bovine UBA7 (bovine) [5] = test: SEC-MALS

His-GST-tagged UBA7(U1) chimera (bovine | human), sequence (P22314 whole entry, change not shown): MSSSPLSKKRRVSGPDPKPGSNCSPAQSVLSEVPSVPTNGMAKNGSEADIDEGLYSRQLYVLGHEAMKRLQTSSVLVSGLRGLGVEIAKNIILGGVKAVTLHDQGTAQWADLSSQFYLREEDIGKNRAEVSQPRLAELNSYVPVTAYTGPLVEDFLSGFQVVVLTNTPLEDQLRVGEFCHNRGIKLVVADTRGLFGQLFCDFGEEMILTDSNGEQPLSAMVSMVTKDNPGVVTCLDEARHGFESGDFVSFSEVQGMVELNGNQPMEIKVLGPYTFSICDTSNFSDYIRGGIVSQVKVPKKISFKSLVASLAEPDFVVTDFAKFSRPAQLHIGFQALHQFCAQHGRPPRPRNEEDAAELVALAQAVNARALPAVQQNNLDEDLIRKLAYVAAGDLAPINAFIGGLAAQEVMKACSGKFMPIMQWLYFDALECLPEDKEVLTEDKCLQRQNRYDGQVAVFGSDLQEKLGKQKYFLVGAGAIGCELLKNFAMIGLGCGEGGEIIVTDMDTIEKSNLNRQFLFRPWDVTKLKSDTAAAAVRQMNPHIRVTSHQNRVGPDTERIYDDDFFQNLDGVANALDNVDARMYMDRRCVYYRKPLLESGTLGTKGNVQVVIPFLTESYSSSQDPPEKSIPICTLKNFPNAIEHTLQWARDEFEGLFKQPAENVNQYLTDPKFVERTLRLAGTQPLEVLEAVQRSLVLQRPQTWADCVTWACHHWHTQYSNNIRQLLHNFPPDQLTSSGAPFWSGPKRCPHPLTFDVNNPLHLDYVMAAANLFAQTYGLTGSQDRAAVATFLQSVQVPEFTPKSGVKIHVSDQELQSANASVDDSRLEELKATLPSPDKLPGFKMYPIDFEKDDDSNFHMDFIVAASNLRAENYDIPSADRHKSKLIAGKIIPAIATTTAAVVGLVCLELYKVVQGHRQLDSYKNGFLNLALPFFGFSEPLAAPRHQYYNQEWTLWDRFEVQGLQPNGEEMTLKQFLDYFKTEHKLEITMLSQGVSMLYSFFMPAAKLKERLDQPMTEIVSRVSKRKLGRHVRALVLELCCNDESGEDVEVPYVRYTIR

Kd [1] | Kd [2] | KM of disulfide complex formation (UBA7 titrated with UBE2L6, SDS-PAGE kinetics) (bovine UBA7 (bovine) [3]) | Kd [4] | stoichiometry N (bovine UBA7 (bovine) [5]) | Substance
4 µM | 48 µM | – | – | – | bovine UBE2L6(C86A) (from UniProt A5PJC4 1-153) (enzyme)
– | – | 1.3 µM | 1.2 µM | 1 | bovine UBE2L6 (from UniProt A5PJC4 1-153) (enzyme)
